B1: HDV Ribozyme (parent)
chain: GGCCGGCAUGGUCCCAGCCUCCUCGCUGGCGCCGGCUGGGCAACAUUCCGAGGGGACCGUCCCCUCGGUAAUGGCGAAUGGGACCCA

The variants in the series derive from B1. Description: self-cleavage, relative activity (ratio to wild type); higher = more cleavage; co-transcriptional.
With G10U A87U, the self-cleavage was 0.653.

As to G10U G25A, the self-cleavage worked out at 0.114.

Turning to G11C A71G, the self-cleavage came to 0.277.

On to G10A C66G, for which the self-cleavage stood at 0.623.

Turning to G10A C26A, the self-cleavage came to 0.906.

Regarding G10A C26G, the self-cleavage is 1.11.

For the variant U9G G38A, the self-cleavage stood at 0.156.

Turning to G11A G82A, the self-cleavage came to 0.253.

For G11A G82U, the self-cleavage is 0.0744.

Turning to G10A C61U, the self-cleavage is 0.84.

Regarding G10A G55C, the self-cleavage amounted to 0.734.

Take G11A U65A: the self-cleavage is 0.396.

On to G10U A77C, for which the self-cleavage amounted to 0.0396.

Turning to G10U C30G, the self-cleavage is 0.0989.

Regarding G10U C14U, the self-cleavage was determined as 0.672.

Take G10A U72A: the self-cleavage is 0.485.

As for G10A G76C, the self-cleavage was found to be 0.772.

In the case of G10A G76A, the self-cleavage came out at 1.04.

Take G10A G76U: the self-cleavage turned out to be 0.997.

On to G11A G53C, for which the self-cleavage stood at 0.372.

On to G10U G29U, for which the self-cleavage worked out at 0.0475.

In the case of U9G G17U, the self-cleavage stood at 0.415.

On to U9G G17C, for which the self-cleavage stood at 0.166.

As for U9G U20C, the self-cleavage was found to be 0.

Regarding G11A C32U, the self-cleavage came to 0.133.

Turning to G11A C32G, the self-cleavage came out at 0.0683.

On to G10A U60A, for which the self-cleavage worked out at 0.739.

As to G10A C15A, the self-cleavage is 0.208.

For G10A C15U, the self-cleavage was found to be 0.332.

For G10U U46A, the self-cleavage amounted to 0.489.

In the case of G11C A43U, the self-cleavage is 0.0583.

As to G11C A43C, the self-cleavage is 0.

With G10U U79A, the self-cleavage turned out to be 0.352.

As to G11A G35U, the self-cleavage is 0.149.

Turning to G11A U69G, the self-cleavage was 0.374.

Take G11A U69C: the self-cleavage was 0.324.

Regarding U9G C33U, the self-cleavage came to 0.87.

Turning to G10A U69C, the self-cleavage was 0.997.

In the case of G10C G76C, the self-cleavage amounted to 0.861.

With G10C G76U, the self-cleavage came to 1.16.

On to G11C C48A, for which the self-cleavage is 0.277.

On to G10U C85U, for which the self-cleavage was 0.946.

Consider G11C C22A, for which the self-cleavage was determined as 0.0898.

Take G11C C22U: the self-cleavage was determined as 0.0817.

As for G11A C48G, the self-cleavage was 0.288.

In the case of G11A C48A, the self-cleavage was found to be 0.506.

G11A G29C: the self-cleavage turned out to be 0.123.

On to G10A G11A, for which the self-cleavage was 0.189.

Consider G10C U60A, for which the self-cleavage was 0.932.

With G10C U23C, the self-cleavage was found to be 0.95.

As to G10C G82U, the self-cleavage turned out to be 0.348.

For the variant G11A C57G, the self-cleavage was 0.432.

On to G11A C57U, for which the self-cleavage was 0.256.

Turning to G11A C57A, the self-cleavage came out at 0.45.

Take G10A G25A: the self-cleavage came out at 0.126.

As for G10A G25C, the self-cleavage worked out at 0.0639.

For the variant G11A G34C, the self-cleavage is 0.0378.

As for G11A G67A, the self-cleavage was determined as 0.0841.

Consider G11A A78U, for which the self-cleavage was determined as 0.111.

With G11A A78C, the self-cleavage is 0.127.

Turning to G10C G50C, the self-cleavage is 0.923.

For G10A G74C, the self-cleavage came to 0.105.

G10U C86A: the self-cleavage worked out at 0.712.

Turning to G10A G59U, the self-cleavage was found to be 0.95.

For G10C A42U, the self-cleavage was 0.289.

For the variant G10C A42G, the self-cleavage came out at 0.151.

As to G10A A77C, the self-cleavage is 0.237.

In the case of G10A A77U, the self-cleavage is 0.169.

With G11C C21G, the self-cleavage came out at 0.

Take G10A U46G: the self-cleavage came to 0.536.

As for G10C C14U, the self-cleavage is 1.11.

Turning to G10U G52C, the self-cleavage was determined as 0.639.

With G10U G74C, the self-cleavage stood at 0.138.

Take G11C C62U: the self-cleavage turned out to be 0.271.

On to G11C C62G, for which the self-cleavage came to 0.214.

Regarding U9G C62U, the self-cleavage is 0.731.

As to G11A A42C, the self-cleavage was found to be 0.101.

Take G11A A42G: the self-cleavage is 0.0692.

Consider U9G C48A, for which the self-cleavage is 1.25.

As for U9G C48G, the self-cleavage stood at 0.997.

In the case of G10C G53U, the self-cleavage stood at 0.91.

As for G11A G81U, the self-cleavage was determined as 0.137.

On to G11A G81C, for which the self-cleavage stood at 0.0396.

In the case of G11A G81A, the self-cleavage was 0.0639.

As for G10C U79C, the self-cleavage was determined as 0.132.

Turning to G11A C49A, the self-cleavage came to 0.363.

In the case of G11A C49U, the self-cleavage came to 0.386.

As for G10U U72A, the self-cleavage was found to be 0.277.

In the case of G11A C15A, the self-cleavage is 0.108.

In the case of U9G G74A, the self-cleavage was found to be 0.751.

On to U9G G74C, for which the self-cleavage was 0.437.

For the variant G11A G52A, the self-cleavage worked out at 0.38.

Turning to G11C A87U, the self-cleavage is 0.453.

As for U9G U72A, the self-cleavage was determined as 0.633.

For U9G U72G, the self-cleavage worked out at 0.776.

Turning to G11C G17U, the self-cleavage was determined as 0.332.

With G10U U69A, the self-cleavage worked out at 0.813.

U9G C84A: the self-cleavage was determined as 0.554.

On to G10U U20C, for which the self-cleavage is 0.

Take U9G G81A: the self-cleavage amounted to 0.8.

As to G10C C44U, the self-cleavage was found to be 0.582.

With G11A A51C, the self-cleavage came to 0.665.

Take G11A C75A: the self-cleavage was found to be 0.

Regarding G11A C75G, the self-cleavage was determined as 0.141.

As for G10C U47C, the self-cleavage was determined as 0.332.

Regarding G10C G11A, the self-cleavage amounted to 0.38.

In the case of G10C G11C, the self-cleavage was found to be 0.462.

Regarding G10C C57U, the self-cleavage amounted to 1.11.

On to G11A C13U, for which the self-cleavage amounted to 0.0297.

Consider G11A C13G, for which the self-cleavage worked out at 0.032.

As for G10C C85U, the self-cleavage came out at 1.07.

Take G10C C85A: the self-cleavage turned out to be 0.598.

As for G10A C86U, the self-cleavage was determined as 0.774.

Consider U9G U37G, for which the self-cleavage stood at 0.111.

U9G C58U: the self-cleavage came to 1.2.

On to G11A A70U, for which the self-cleavage was determined as 0.246.

Regarding G11A A70G, the self-cleavage came to 0.365.

G10U A45U: the self-cleavage stood at 0.506.

For the variant G11A C30U, the self-cleavage turned out to be 0.0645.

As for G10A A71G, the self-cleavage worked out at 0.703.

Regarding G10A A71C, the self-cleavage came out at 0.456.

For the variant G11C C84G, the self-cleavage amounted to 0.831.

On to G10U C66A, for which the self-cleavage turned out to be 0.895.

Take G10U U37A: the self-cleavage was found to be 0.058.

Take G11C C32U: the self-cleavage was found to be 0.192.

On to G11C C32G, for which the self-cleavage came out at 0.0875.

Take U9G G34A: the self-cleavage was found to be 0.344.

On to U9G G73C, for which the self-cleavage is 0.767.

On to U9G G73A, for which the self-cleavage came to 0.665.

As to U9G G10A, the self-cleavage came out at 1.25.

As for G11C A77C, the self-cleavage came out at 0.128.

As for G10C U72G, the self-cleavage was 0.369.

G10C U72A: the self-cleavage came to 0.415.

With G10A C24G, the self-cleavage was found to be 0.061.

In the case of G10A C24U, the self-cleavage stood at 0.338.

Consider U9G U69G, for which the self-cleavage came to 0.767.

Take U9G U69A: the self-cleavage was 0.831.

In the case of G11A C22G, the self-cleavage amounted to 0.0193.

In the case of G11C C85G, the self-cleavage was determined as 0.831.

In the case of G10U G31U, the self-cleavage came out at 0.181.

In the case of G11A U72G, the self-cleavage came out at 0.0923.

G10C G81A: the self-cleavage was found to be 0.131.

On to G10A A78G, for which the self-cleavage was 0.302.

As to G11C G29C, the self-cleavage came to 0.0852.

With G10A C13A, the self-cleavage amounted to 0.0941.

Take G10U C58G: the self-cleavage is 0.793.

With U9G G82C, the self-cleavage was determined as 0.646.

With G11A U23C, the self-cleavage stood at 0.353.

Turning to G11A U23A, the self-cleavage is 0.313.

G10U C61U: the self-cleavage is 0.684.

With G10C C61G, the self-cleavage was 0.808.

G11A C33U: the self-cleavage came to 0.271.

With G11C A16G, the self-cleavage worked out at 0.277.

In the case of G11A C61G, the self-cleavage turned out to be 0.332.

Take G11A C36G: the self-cleavage came to 0.151.

Take G11A C36A: the self-cleavage came to 0.0446.

Turning to G10U A70G, the self-cleavage was 0.858.

As for U9G C57U, the self-cleavage amounted to 1.03.

As to G10A A87C, the self-cleavage was 0.764.

As for G10U G39A, the self-cleavage came to 0.199.

As for G10U G39U, the self-cleavage is 0.346.

Turning to G10C A45C, the self-cleavage turned out to be 0.231.

Take G10C A45U: the self-cleavage was determined as 1.11.

In the case of U9G U47G, the self-cleavage was 1.21.

In the case of G11A U79C, the self-cleavage is 0.161.

Take G10U U27C: the self-cleavage was determined as 0.554.

As for G10C C32G, the self-cleavage is 0.0773.
